In patent US6649396:

Target: native fiber receptors
Experiment: cell-based or functional assay

Row | Substance | decrease in expression of luciferase after AdCMVLuc infection of mock-transfected HeLa cells and HeLa cells expressing the irrelevant sFv
1 | recombinant Ad2 knob (from UniProt P03275 388-582) | > 95%
2 | recombinant Ad5 knob (from UniProt P11818 386-581) | > 95%
